Assay results: article PMC6483365

Assays:
[1] = target: hemagglutinin on whole virus (Influenza A virus A/Aichi/2/1968 (H3N2)) (UniProt P03437); experiment: ELAA
[2] = test system: hemagglutinin on whole virus (Influenza A virus A/England/42/1972 (H3N2)); experiment: ELAA; details: […], pH 7.4), 25 C, […], room temperature, 1 h
[3] = target: hemagglutinin on whole virus (Influenza A virus A/New Caledonia/20/1999 (H1N1)) (UniProt Q6WG00); experiment: ELAA; details: […], pH 7.4), 25 C, […], room temperature, 1 h
[4] = test system: hemagglutinin on whole virus (Influenza A virus A/Primorie/3631/2002 (H9N2)); experiment: ELAA; details: […], pH 7.4), 25 C, […], room temperature, 1 h
[5] = target: hemagglutinin on whole virus (Influenza A virus A/Puerto-Rico/8/1934 (H1N1)) (UniProt P03452); experiment: ELAA
Chain of hemagglutinin on whole virus (Influenza A virus A/Puerto-Rico/8/1934 (H1N1)) (P03452 whole entry): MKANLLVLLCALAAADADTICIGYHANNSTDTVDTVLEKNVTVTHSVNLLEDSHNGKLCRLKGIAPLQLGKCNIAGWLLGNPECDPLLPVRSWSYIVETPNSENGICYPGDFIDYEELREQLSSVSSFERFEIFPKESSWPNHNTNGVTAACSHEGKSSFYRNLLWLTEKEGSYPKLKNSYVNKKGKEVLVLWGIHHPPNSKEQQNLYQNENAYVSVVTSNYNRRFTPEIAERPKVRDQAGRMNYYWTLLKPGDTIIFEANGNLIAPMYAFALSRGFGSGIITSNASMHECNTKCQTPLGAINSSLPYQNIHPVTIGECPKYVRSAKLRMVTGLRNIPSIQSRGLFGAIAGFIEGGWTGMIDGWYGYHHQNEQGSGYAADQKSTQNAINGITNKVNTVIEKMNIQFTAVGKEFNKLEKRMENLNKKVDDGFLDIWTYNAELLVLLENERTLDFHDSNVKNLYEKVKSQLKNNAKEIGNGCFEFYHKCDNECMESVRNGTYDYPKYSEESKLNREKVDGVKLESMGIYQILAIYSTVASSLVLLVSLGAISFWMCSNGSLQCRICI

[6] = target: hemagglutinin on whole virus (Influenza A virus A/Vietnam/1203/2004-PR8/CDC-R (H5N1)) (UniProt Q6DQ33); experiment: ELAA; details: […], pH 7.4), 25 C, […], room temperature, 1 h
[7] = test system: hemagglutinin on whole virus (Influenza A virus A/duck/Primorie/3691/2002 (H12N2)); experiment: ELAA; details: […], pH 7.4), 25 C, […], room temperature, 1 h
[8] = test system: hemagglutinin on whole virus (Influenza A virus A/mallard/Sweden/91/2002 (H7N9)); experiment: ELAA; details: […], pH 7.4), 25 C, […], room temperature, 1 h
[9] = test system: hemagglutinin on whole virus (Influenza A virus A/tern/South Africa/1/1961 (H5N3)); experiment: ELAA; details: […], pH 7.4), 25 C, […], room temperature, 1 h
[10] = target: hemagglutinin on whole virus (Influenza A virus A/Aichi/2/1968 (H3N2)) (UniProt P03437); experiment: SERS sandwich
[11] = test system: hemagglutinin on whole virus (Influenza A virus A/Buryatia/2408/2001 (H4N6)); experiment: SERS sandwich; details: […], pH 7.4), 25 C, […], room temperature, 1 h
[12] = test system: hemagglutinin on whole virus (Influenza A virus A/Buryatia/652/1988 (H3N8)); experiment: SERS sandwich; details: […], pH 7.4), 25 C, […], room temperature, 1 h
[13] = test system: hemagglutinin on whole virus (Influenza A virus A/England/42/1972 (H3N2)); experiment: SERS sandwich; details: […], pH 7.4), 25 C, […], room temperature, 1 h
[14] = test system: hemagglutinin on whole virus (Influenza A virus A/Mississippi/1/1985 (H3N2)); experiment: SERS sandwich; details: […], pH 7.4), 25 C, […], room temperature, 1 h
[15] = target: hemagglutinin on whole virus (Influenza A virus A/New Caledonia/20/1999 (H1N1)) (UniProt Q6WG00); experiment: SERS sandwich; details: […], pH 7.4), 25 C, […], room temperature, 1 h
[16] = test system: hemagglutinin on whole virus (Influenza A virus A/Primorie/3/1982 (H9N2)); experiment: SERS sandwich; details: […], pH 7.4), 25 C, […], room temperature, 1 h
[17] = target: hemagglutinin on whole virus (Influenza A virus A/Vietnam/1203/2004-PR8/CDC-R (H5N1)) (UniProt Q6DQ33); experiment: SERS sandwich; details: […], pH 7.4), 25 C, […], room temperature, 1 h
[18] = test system: hemagglutinin on whole virus (Influenza A virus A/duck/Moscow/4182/2010 (H5N3)); experiment: SERS sandwich; details: […], pH 7.4), 25 C, […], room temperature, 1 h
[19] = test system: hemagglutinin on whole virus (Influenza A virus A/duck/Primorie/3691/2002 (H12N2)); experiment: SERS sandwich; details: […], pH 7.4), 25 C, […], room temperature, 1 h
[20] = test system: hemagglutinin on whole virus (Influenza A virus A/tern/South Africa/1/1961 (H5N3)); experiment: SERS sandwich; details: […], pH 7.4), 25 C, […], room temperature, 1 h
[21] = test system: recombinant hemagglutinin H1 (Influenza A virus (H1 subtype, strain not stated)); experiment: SPR; details: […], pH 7.4), 25 C, room temperature, 1 h
[22] = test system: recombinant hemagglutinin H3 (Influenza A virus (H3 subtype, strain not stated)); experiment: SPR; details: […], pH 7.4), 25 C, room temperature, 1 h
[23] = test system: recombinant hemagglutinin H5 (Influenza A virus (H5 subtype, strain not stated)); experiment: SPR; details: […], pH 7.4), 25 C, room temperature, 1 h
[24] = test system: recombinant hemagglutinin H7 (Influenza A virus (H7 subtype, strain not stated)); experiment: SPR; details: […], pH 7.4), 25 C, room temperature, 1 h
[25] = test system: recombinant hemagglutinin H9 (Influenza A virus (H9 subtype, strain not stated)); experiment: SPR; details: […], pH 7.4), 25 C, room temperature, 1 h

Sequence: TTGGGGTTATTTTGGGAGGGCGGGGGTT [RHA0385-Biotin]
- Kd [1]: 17 nM
- Kd [2]: 40 nM
- Kd [3]: 42 nM
- Kd [4]: 16 nM
- Kd [5]: 13 nM
- Kd [6]: 34 nM
- Kd [7]: > 200 nM
- Kd [8]: 13 nM
- Kd [9]: 200 nM

Sequence: TTGGGGTTATTTTGGGAGGGCGGGGGTT [RHA0385-Cy3]
- binding signal (relative SERS signal) [10]: 4.1
- binding signal (relative SERS signal) [11]: 6.9
- binding signal (relative SERS signal) [12]: 2.4
- binding signal (relative SERS signal) [13]: 3
- binding signal (relative SERS signal) [14]: 4.3
- binding signal (relative SERS signal) [15]: 1.7
- binding signal (relative SERS signal) [16]: 2.4
- binding signal (relative SERS signal) [17]: 4.8
- binding signal (relative SERS signal) [18]: 2.9
- binding signal (relative SERS signal) [19]: 5
- binding signal (relative SERS signal) [20]: 6.5

Sequence: TTGGGGTTATTTTGGGAGGGCGGGGGTT [RHA0385]
- Kd [21]: 7 nM
- Kd [22]: 12 nM
- Kd [23]: 13 nM
- Kd [24]: 12 nM
- Kd [25]: 14 nM
